From the supplement of paper PMC5998384

What was measured:
HeLa Kyoto [1] = assay: melting temperature (median over replicates), in situ; higher = more thermally stable
HeLa Kyoto [2] = assay: solubility change mitosis vs G1/S (difference of NP-40 vs SDS log2 ratios) (log2 ratio difference); higher = more soluble in mitosis
HeLa Kyoto [3] = assay: solubility in G1/S (NP-40 vs SDS abundance) (log2 ratio); higher = more soluble; conditions: cell cycle stage: G1/S
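Throughout, for melting temperature (median over replicates), in situ: HeLa Kyoto cells synchronized by double thymidine or nocodazole block, proteins quantified by TMT10plex mass spectrometry, three independent biological replicates.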
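Throughout, for solubility change mitosis vs G1/S (difference of NP-40 vs SDS log2 ratios): synchronized HeLa Kyoto cells (double thymidine block for G1/S, nocodazole release for mitosis), protein amounts in NP-40 versus SDS lysates quantified by mass spectrometry, three biological replicates.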
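Throughout, for solubility in G1/S (NP-40 vs SDS abundance): HeLa Kyoto cells arrested at G1/S by double thymidine block, proteins quantified by TMT10plex mass spectrometry in mild NP-40 versus SDS extracts, three biological replicates.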

Row | Sequence | melting temperature (HeLa Kyoto [1]; cell cycle stage: G1/S) [°C] | melting temperature (HeLa Kyoto [1]; cell cycle stage: mitosis) [°C] | solubility change mitosis (log2) (HeLa Kyoto [2]) | solubility in G1/S (log2) (HeLa Kyoto [3])
1 | MGDEKDSWKVKTLDEILQEKKRRKEQEEKAEIKRLKNSDDRDSKRDSLEEGELRDHRMEITIRNSPYRREDSMEDRGEEDDSLAIKPPQQMSRKEKAHHRKDEKRKEKRRHRSHSAEGGKHARVKEKEREHERRKRHREEQDKARREWERQKRREMAREHSRRERDRLEQLERKRERERKMREQQKEQREQKERERRAEERRKEREARREVSAHHRTMREDYSDKVKASHWSRSPPRPPRERFELGDGRKPGEARPAPAQKPAQLKEEKMEERDLLSDLQDISDSERKTSSAESSSAESGSGSEEEEEEEEEEEEEGSTSEESEEEEEEEEEEEEETGSNSEEASEQSAEEVSEEEMSEDEERENENHLLVVPESRFDRDSGESEEAEEEVGEGTPQSSALTEGDYVPDSPALSPIELKQELPKYLPALQGCRSVEEFQCLNRIEEGTYGVVYRAKDKKTDEIVALKRLKMEKEKEGFPITSLREINTILKAQHPNIVTVREIVVGSNMDKIYIVMNYVEHDLKSLMETMKQPFLPGEVKTLMIQLLRGVKHLHDNWILHRDLKTSNLLLSHAGILKVGDFGLAREYGSPLKAYTPVVVTLWYRAPELLLGAKEYSTAVDMWSVGCIFGELLTQKPLFPGKSEIDQINKVFKDLGTPSEKIWPGYSELPAVKKMTFSEHPYNNLRKRFGALLSDQGFDLMNKFLTYFPGRRISAEDGLKHEYFRETPLPIDPSMFPTWPAKSEQQRVKRGTSPRPPEGGLGYSQLGDDDLKETGFHLTTTNQGASAAGPGFSLKF [CDC2L1] | 46.5 | 50.3 | 0.114 | -0.672
2 | MGEQPIFSTRAHVFQIDPNTKKNWVPTSKHAVTVSYFYDSTRNVYRIISLDGSKAIINSTITPNMTFTKTSQKFGQWADSRANTVYGLGFSSEHHLSKFAEKFQEFKEAARLAKEKSQEKMELTSTPSQESAGGDLQSPLTPESINGTDDERTPDVTQNSEPRAEPTQNALPFSHSSAISKHWEAELATLKGNNAKLTAALLESTANVKQWKQQLAAYQEEAERLHKRVTELECVSSQANAVHTHKTELNQTIQELEETLKLKEEEIERLKQEIDNARELQEQRDSLTQKLQEVEIRNKDLEGQLSDLEQRLEKSQNEQEAFRNNLKTLLEILDGKIFELTELRDNLAKLLECS [HOMER1] | 51 | 51.9 | 0.185 | 0.426
3 | MGFLRRLIYRRRPMIYVESSEESSDEQPDEVESPTQSQDSTPAEEREDEGASAAQGQEPEADSQELVQPKTGCELGDGPDTKRVCLRNEEQMKLPAEGPEPEADSQEQVHPKTGCERGDGPDVQELGLPNPEEVKTPEEDEGQSQP [PAGE1] | 53.3 | 51.6 | 0.603 | -0.617
4 | MGNLFGRKKQSRVTEQDKAILQLKQQRDKLRQYQKRIAQQLERERALARQLLRDGRKERAKLLLKKKRYQEQLLDRTENQISSLEAMVQSIEFTQIEMKVMEGLQFGNECLNKMHQVMSIEEVERILDETQEAVEYQRQIDELLAGSFTQEDEDAILEELSAITQEQIELPEVPSEPLPEKIPENVPVKARPRQAELVAAS [CHMP6] | – | 52.2 | 0.149 | 0.453
5 | MGNTLTCCVSPNASPKLGRRAGSAELYCASDIYEAVSGDAVAVAPAVVEPAELDFGEGEGHHLQHISDREMPEDLALESNPSDHPRASTIFLSKSQTDVREKRKSNHLNHVSPGQLTKKYSSCSTIFLDDSTVSQPNLRTTVKCVTLAIYYHIKNRDANRSLDIFDERSHPLTREKVPEEYFKHDPEHKFIYRFVRTLFSAAQLTAECAIVTLVYLERLLTYAEIDICPTNWKRIVLGAILLASKVWDDQAVWNVDYCQILKDITVEDMNEMERHFLELLQFNINVPASVYAKYYFDLRSLADDNNLNFLFAPLSKERAQNLEAISRLCEDKDLCRAAMRRSFSADNFIGIQRSKAILS [CCNYL1] | 48.9 | 49.2 | -0.0896 | -0.167
6 | MGPRARPALLLLMLLQTAVLQGRLLRSHSLHYLFMGASEQDLGLSLFEALGYVDDQLFVFYDHESRRVEPRTPWVSSRISSQMWLQLSQSLKGWDHMFTVDFWTIMENHNHSKESHTLQVILGCEMQEDNSTEGYWKYGYDGQDHLEFCPDTLDWRAAEPRAWPTKLEWERHKIRARQNRAYLERDCPAQLQQLLELGRGVLDQQVPPLVKVTHHVTSSVTTLRCRALNYYPQNITMKWLKDKQPMDAKEFEPKDVLPNGDGTYQGWITLAVPPGEEQRYTCQVEHPGLDQPLIVIWEPSPSGTLVIGVISGIAVFVVILFIGILFIILRKRQGSRGAMGHYVLAERE [HFE] | 55.9 | 57.2 | 0.0716 | 0.207
7 | MGQQVGRVGEAPGLQQPQPRGIRGSSAARPSGRRRDPAGRTTETGFNIFTQHDHFASCVEDGFEGDKTGGSSPEALHRPYGCDVEPQALNEAIRWSSKENLLGATESDPNLFVALYDFVASGDNTLSITKGEKLRVLGYNQNGEWSEVRSKNGQGWVPSNYITPVNSLEKHSWYHGPVSRSAAEYLLSSLINGSFLVRESESSPGQLSISLRYEGRVYHYRINTTADGKVYVTAESRFSTLAELVHHHSTVADGLVTTLHYPAPKCNKPTVYGVSPIHDKWEMERTDITMKHKLGGGQYGEVYVGVWKKYSLTVAVKTLKEDTMEVEEFLKEAAVMKEIKHPNLVQLLGVCTLEPPFYIVTEYMPYGNLLDYLRECNREEVTAVVLLYMATQISSAMEYLEKKNFIHRDLAARNCLVGENHVVKVADFGLSRLMTGDTYTAHAGAKFPIKWTAPESLAYNTFSIKSDVWAFGVLLWEIATYGMSPYPGIDLSQVYDLLEKGYRMEQPEGCPPKVYELMRACWKWSPADRPSFAETHQAFETMFHDSSISEEVAEELGRAASSSSVVPYLPRLPILPSKTRTLKKQVENKENIEGAQDATENSASSLAPGFIRGAQASSGSPALPRKQRDKSPSSLLEDAKETCFTRDRKGGFFSSFMKKRNAPTPPKRSSSFREMENQPHKKYELTGNFSSVASLQHADGFSFTPAQQEANLVPPKCYGGSFAQRNLCNDDGGGGGGSGTAGGGWSGITGFFTPRLIKKTLGLRAGKPTASDDTSKPFPRSNSTSSMSSGLPEQDRMAMTLPRNCQRSKLQLERTVSTSSQPEENVDRANDMLPKKSEESAAPSRERPKAKLLPRGATALPLRTPSGDLAITEKDPPGVGVAGVAAAPKGKEKNGGARLGMAGVPEDGEQPGWPSPAKAAPVLPTTHNHKVPVLISPTLKHTPADVQLIGTDSQGNKFKLLSEHQVTSSGDKDRPRRVKPKCAPPPPPVMRLLQHPSICSDPTEEPTALTAGQSTSETQEGGKKAALGAVPISGKAGRPVMPPPQVPLPTSSISPAKMANGTAGTKVALRKTKQAAEKISADKISKEALLECADLLSSALTEPVPNSQLVDTGHQLLDYCSGYVDCIPQTRNKFAFREAVSKLELSLQELQVSSAAAGVPGTNPVLNNLLSCVQEISDVVQR [ABL2] | 49.2 | 49.1 | -0.139 | 0.0755
8 | MGREFGNLTRMRHVISYSLSPFEQRAYPHVFTKGIPNVLRRIRESFFRVVPQFVVFYLIYTWGTEEFERSKRKNPAAYENDK [UQCRQ] | 53.1 | 51.8 | -0.186 | -0.497
9 | MGSQALPPGPMQTLIFFDMEATGLPFSQPKVTELCLLAVHRCALESPPTSQGPPPTVPPPPRVVDKLSLCVAPGKACSPAASEITGLSTAVLAAHGRQCFDDNLANLLLAFLRRQPQPWCLVAHNGDRYDFPLLQAELAMLGLTSALDGAFCVDSITALKALERASSPSEHGPRKSYSLGSIYTRLYGQSPPDSHTAEGDVLALLSICQWRPQALLRWVDAHARPFGTIRPMYGVTASARTKPRPSAVTTTAHLATTRNTSPSLGESRGTKDLPPVKDPGALSREGLLAPLGLLAILTLAVATLYGLSLATPGE [TREX1] | 53.5 | 56.2 | 0.329 | -0.198
10 | MGSTVPRSASVLLLLLLLRRAEQPCGAELTFELPDNAKQCFHEEVEQGVKFSLDYQVITGGHYDVDCYVEDPQGNTIYRETKKQYDSFTYRAEVKGVYQFCFSNEFSTFSHKTVYFDFQVGDEPPILPDMGNRVTALTQMESACVTIHEALKTVIDSQTHYRLREAQDRARAEDLNSRVSYWSVGETIALFVVSFSQVLLLKSFFTEKRPISRAVHS [TMED3] | 53.4 | 53.4 | -0.000936 | -0.0742
11 | MHQPPESTAAAAAAADISARKMAHPAMFPRRGSGSGSASALNAAGTGVGSNATSSEDFPPPSLLQPPPPAASSTSGPQPPPPQSLNLLSQAQLQAQPLAPGGTQMKKKSGFQITSVTPAQISASISSNNSIAEDTESYDDLDESHTEDLSSSEILDVSLSRATDLGEPERSSSEETLNNFQEAETPGAVSPNQPHLPQPHLPHLPQQNVVINGNAHPHHLHHHHQIHHGHHLQHGHHHPSHVAVASASITGGPPSSPVSRKLSTTGSSDSITPVAPTSAVSSSGSPASVMTNMRAPSTTGGIGINSVTGTSTVNNVNITAVGSFNPNVTSSMLGNVNISTSNIPSAAGVSVGPGVTSGVNVNILSGMGNGTISSSAAVSSVPNAAAGMTGGSVSSQQQQPTVNTSRFRVVKLDSSSEPFKKGRWTCTEFYEKENAVPATEGVLINKVVETVKQNPIEVTSERESTSGSSVSSSVSTLSHYTESVGSGEMGAPTVVVQQQQQQQQQQQQQPALQGVTLQQMDFGSTGPQSIPAVSIPQSISQSQISQVQLQSQELSYQQKQGLQPVPLQATMSAATGIQPSPVNVVGVTSALGQQPSISSLAQPQLPYSQAAPPVQTPLPGAPPPQQLQYGQQQPMVSTQMAPGHVKSVTQNPASEYVQQQPILQTAMSSGQPSSAGVGAGTTVIPVAQPQGIQLPVQPTAVPAQPAGASVQPVGQAPAAVSAVPTGSQIANIGQQANIPTAVQQPSTQVPPSVIQQGAPPSSQVVPPAQTGIIHQGVQTSAPSLPQQLVIASQSSLLTVPPQPQGVEPVAQGIVSQQLPAVSSLPSASSISVTSQVSSTGPSGMPSAPTNLVPPQNIAQTPATQNGNLVQSVSQPPLIATNTNLPLAQQIPLSSTQFSAQSLAQAIGSQIEDARRAAEPSLVGLPQTISGDSGGMSAVSDGSSSSLAASASLFPLKVLPLTTPLVDGEDESSSGASVVAIDNKIEQAMDLVKSHLMYAVREEVEVLKEQIKELIEKNSQLEQENNLLKTLASPEQLAQFQAQLQTGSPPATTQPQGTTQPPAQPASQGSGPTA [TSC22D1] | 54.4 | 53.1 | -0.0765 | -0.382
12 | MITKTHKVDLGLPEKKKKKKVVKEPETRYSVLNNDDYFADVSPLRATSPSKSVAHGQAPEMPLVKKKKKKKKGVSTLCEEHVEPETTLPARRTEKSPSLRKQVFGHLEFLSGEKKNKKSPLAMSHASGVKTSPDPRQGEEETRVGKKLKKHKKEKKGAQDPTAFSVQDPWFCEAREARDVGDTCSVGKKDEEQAALGQKRKRKSPREHNGKVKKKKKIHQEGDALPGHSKPSRSMESSPRKGSKKKPVKVEAPEYIPISDDPKASAKKKMKSKKKVEQPVIEEPALKRKKKKKRKESGVAGDPWKEETDTDLEVVLEKKGNMDEAHIDQVRRKALQEEIDRESGKTEASETRKWTGTQFGQWDTAGFENEDQKLKFLRLMGGFKNLSPSFSRPASTIARPNMALGKKAADSLQQNLQRDYDRAMSWKYSRGAGLGFSTAPNKIFYIDRNASKSVKLED [KNOP1] | 54.2 | 52.1 | 1.57 | -1.76
